From patent US20130040825A1, “DNA DAMAGE DETECTION ASSAY AND METHOD” (priority 2011, published 2013) come the findings set out here.

Data set [1] relates to CAN1 gene. Put plainly: q-PADDA quantification of induced DNA damage after in vitro exposure of cloned CAN1 plasmid DNA. Type of data set: biochemical, Saccharomyces cerevisiae. The method, then:
We quantified induced DNA damage after in vitro and/or in vivo exposure to a dose escalation of H2O2 (1 μM to 500 mM) and methyl methanosulfonate (MMS) (1 mM to 1 M). For in vitro assays, a 1,750 bp fragment of the CAN1 gene was amplified by PCR and cloned into the pJET1.2 vector (Fermentas, Glenn Burie, Md.) using standard protocols. Plasmid DNA was sequence verified, extracted using CsCl and dialyzed overnight against 500 ml H2O. Five μg of dialyzed DNA were treated with H2O2 in the presence of 0.3 M sucrose and 100 μM Fe^2+ as described (84), or with MMS in water (85). Treated DNA was recovered by ethanol precipitation. For in vivo induced DNA damage assays, BER− cells in logarithmic phase were treated with varying doses and times of MMS as described (85). For a control, cells were treated with water in place of MMS. Genomic DNA was extracted as described above, except MMS concentration was kept constant during spheroplasting. […] Control samples were processed as treated samples except water was added in place of the specific genotoxic. Experiments were repeated at least in triplicate. For high-throughput damage quantification, the highly purified streptavidin bound extended products were re-suspended in 50 μl TE and amplified by Real-Time PCR using one of 2 Real-Time PCR detection Systems: IQ5 Real-Time PCR detection System or Qx100 digital droplet PCR system.
For the IQ5 Real-Time PCR detection System using Sybr Green, reactions were carried out in an in a 25 μl final volume with PCR buffer (40 mM Tricine-KOH (pH 8.0), 16 mM KCl, 3.5 mM MgCl2, 3.75 μg/ml bovine serum albumin), 1:75,000 dilution SYBR Green I (Invitrogen), 0.8 mM total dNTPs (Fermentas), 0.7 units JUMPSTART Taq polymerase (Sigma), 0.32 μM each oligo, and 1/32 of total extended product pool. Amplification was monitored and analyzed by measuring the intercalation of the fluorescent dye to double-stranded DNA according to the manufacturer's instructions. To quantify damage on each strand of the yeast CAN1 gene, two fragments of different lengths located in the same genomic region were amplified. The long fragment (513 to 628 bases) was used to assess damage quantification. The short fragment (67 to 68 bases), representing undamaged DNA, was used as an internal normalization control. The PCR conditions for the different fragments were optimized to achieve similar amplification efficiencies required to compare different amplicons. All products were amplified under the following conditions: 95° C., 3 min; 40 cycles (95° C., 15 s; 63° C., 40 s). Each sample was assayed in at least three independent experiments, each with at least four wells per sample, from three separate yeast cultures and DNA extractions. […]

Data set [2] concerns BER− cells. Briefly: q-PADDA quantification of in vivo induced DNA damage in BER− cells in logarithmic phase. Type of data set: cell-based, Saccharomyces cerevisiae. The following applies: BER− yeast cells (FIG. 4A, 4B). The method, then: We quantified induced DNA damage after in vitro and/or in vivo exposure to a dose escalation of H2O2 (1 μM to 500 mM) and methyl methanosulfonate (MMS) (1 mM to 1 M). For in vitro assays, a 1,750 bp fragment of the CAN1 gene was amplified by PCR and cloned into the pJET1.2 vector (Fermentas, Glenn Burie, Md.) using standard protocols. Plasmid DNA was sequence verified, extracted using CsCl and dialyzed overnight against 500 ml H2O. Five μg of dialyzed DNA were treated with H2O2 in the presence of 0.3 M sucrose and 100 μM Fe^2+ as described (84), or with MMS in water (85). Treated DNA was recovered by ethanol precipitation. […] For high-throughput damage quantification, the highly purified streptavidin bound extended products were re-suspended in 50 μl TE and amplified by Real-Time PCR using one of 2 Real-Time PCR detection Systems: IQ5 Real-Time PCR detection System or Qx100 digital droplet PCR system.
For the IQ5 Real-Time PCR detection System using Sybr Green, reactions were carried out in an in a 25 μl final volume with PCR buffer (40 mM Tricine-KOH (pH 8.0), 16 mM KCl, 3.5 mM MgCl2, 3.75 μg/ml bovine serum albumin), 1:75,000 dilution SYBR Green I (Invitrogen), 0.8 mM total dNTPs (Fermentas), 0.7 units JUMPSTART Taq polymerase (Sigma), 0.32 μM each oligo, and 1/32 of total extended product pool. […] The long fragment (513 to 628 bases) was used to assess damage quantification. […]

Data set [3] has as its system naked DNA. Briefly: PADDA detection of cytosine deamination after exposure of naked DNA to serial dilutions of sodium bisulfite. It counts as biochemical. To be noted: serial dilutions (FIG. 6).
Data set [4] has as its target T1, Vent exo− (Thermococcus litoralis, UniProt P30317, D141A/DEL1082-1471/DEL495-1032/E143A).
T1 construct: Vent exo−, a truncated form of a native DNA polymerase (Vent, NEB); purchased NEB
Put plainly: f-PADDA primer extension on synthetic oligonucleotides containing a single engineered lesion. Type of data set: biochemical. To be noted: for lesion detected in primer extensions (sensitivity of PADDA): engineered lesion in 64 base template, at least 20 independent events per lesion; for Stops with Misincorporation (SMs): replicative arrest with misincorporation opposite the damaged base; for Stops: replicative arrest without misincorporation; for lesion acting as Vent exo− blocking lesion: share of all primer extensions; for Lesion Bypass with Misincorporation (LBM): misincorporation without replicative arrest. The method, then:
A single non-cycled primer-extension reaction in the region of interest was performed to screen for DNA damage. It will be understood that the presently disclosed and claimed inventive concepts are not limited to these oligonucleotides. For damage detection in synthetic DNA, we prepared a 22.8 μl primer extension reaction containing 1× Thermopol buffer (NEB, Ipswich, Mass.), 0.2 mM each dNTP (Fermentas, Glen Burie, Md.), 20 pmol of a 5-biotin-tagged primer, and 20 pmol of a 64 base template containing either a synthetic abasic or 8-OxoG lesion, along with a control (undamaged oligo). To generate a pool of biotin-tagged extended products (FIG. 1A), the mix was incubated at 94° C. for 3 min, held at 85° C. to add 0.08 U of Vent exo− (NEB), and then incubated at 58° C. for 2 min (annealing), and 75° C. for 2 min (extension). For damage detection in genomic DNA, we used 500 ng of S. cerevisiae genomic DNA, 0.8 U of Vent exo−, and 2 pmol of a 5-biotin-tagged gene specific primer. A sample containing all reagents except Vent exo− was used as a negative control for all experiments. The non-cycled primer-extension contrasts with the multiple-cycle primer-extension reaction of previous assays, and generates a pool of highly specific biotin-tagged extended products (EPs), each of them derived from a single DNA molecule and strand (FIG. 1A). The use of a 5-biotin-tagged sequence specific primer allows for subsequent steps aimed at reducing the background of the technique. Vent exo−, a truncated form of a native DNA polymerase (Vent, NEB), was chosen for this assay instead of the currently used Sequenase (13) or Taq DNA polymerase (14), because of its reported high sensitivity to detect DNA damage (21) and primer-extension efficiency (22-24). To optimize primer-extension performance, Vent exo− units were adjusted to the complexity of the DNA being screened (22).
For the purpose of mapping strand-specific nucleotide damage (f-PADDA), the 3′-end of the highly purified extended products was attached to the 5′-end of a chemically modified adapter-primer using Thermophage single-stranded DNA ligase (Prokaria, Reykjavik, Iceland) [Currently Circligase I from Epicentre, Madison, Wis.]. Thermophage was chosen for this reaction because its efficiency for single-strand ligation is higher than that of T4 RNA ligase (25) used in some PCR-based assays. […] Purified extended-products were first washed with 20 μl of 1× Thermophage ssDNA ligase buffer and then resuspended in 3.7 μl of 1× Thermophage ssDNA ligase buffer. The ligation was performed as recommended by Prokaria except 1.5 μM adapter and 10 U ssDNA ligase in a final 10 μl volume were used under the following conditions: 55° C. for 1 h, 65° C. for 15 min, and 70° C. for 15 min. Then, samples were spun briefly and the supernatant removed as before in the presence of a magnet. The adapter-ligated extended-products were washed with 1 ml of 2× B&W buffer, and then incubated with 1 ml of 0.5 M NaOH for 5 min to completely remove free adapters and non-specifically bound DNA. Finally, the supernatant was discarded and the bound products were washed with 200 μl of 2× B&W buffer. The adapter-linked extended-products pool was then washed with 20 μl of 1× Phusion HF PCR buffer and amplified for 35-cycles using Phusion Hot-Start DNA Polymerase (Finnzymes), an oligonucleotide complementary to the adapter-primer and a nested gene-specific primer according to the manufacturer's instructions. Phusion Hot-Start DNA Polymerase has the highest available accuracy (error rate=4.4×10^−7) and generates blunt-end products. After PCR amplification, the supernatant was collected under a magnetic field for use in cloning (CLONE JET PCR cloning kit, Fermentas) and transformation following standard procedures. This cloning strategy yields 99% of clones positive for a cloned insert. […]

T1 sequence (P30317 other isoform, or with tags, fused parts or gaps D141A/E143A/DEL495-1032/DEL1082-1471): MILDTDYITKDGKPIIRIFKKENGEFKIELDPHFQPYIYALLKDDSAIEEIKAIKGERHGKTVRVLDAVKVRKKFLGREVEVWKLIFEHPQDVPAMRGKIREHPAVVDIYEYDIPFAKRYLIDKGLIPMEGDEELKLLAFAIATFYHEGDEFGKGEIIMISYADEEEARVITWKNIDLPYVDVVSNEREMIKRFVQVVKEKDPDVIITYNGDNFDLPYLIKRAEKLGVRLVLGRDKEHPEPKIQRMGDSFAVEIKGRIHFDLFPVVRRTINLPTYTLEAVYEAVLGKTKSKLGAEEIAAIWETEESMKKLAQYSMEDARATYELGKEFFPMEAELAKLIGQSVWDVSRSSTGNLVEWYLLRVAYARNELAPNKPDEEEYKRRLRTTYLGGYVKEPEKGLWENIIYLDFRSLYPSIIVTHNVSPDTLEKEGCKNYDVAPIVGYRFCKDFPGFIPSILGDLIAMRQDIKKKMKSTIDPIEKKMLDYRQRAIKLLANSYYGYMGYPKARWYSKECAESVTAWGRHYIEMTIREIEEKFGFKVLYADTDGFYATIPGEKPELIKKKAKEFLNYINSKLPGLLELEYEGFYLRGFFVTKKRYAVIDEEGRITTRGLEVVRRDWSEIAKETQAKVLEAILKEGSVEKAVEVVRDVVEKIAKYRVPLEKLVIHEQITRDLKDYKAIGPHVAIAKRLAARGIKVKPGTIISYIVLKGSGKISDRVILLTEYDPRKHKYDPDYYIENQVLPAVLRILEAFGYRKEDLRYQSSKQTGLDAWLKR

With `OO` [H2O2, Hydrogen peroxide], the “total CAN1 DNA damage compared to the control” value in data set [1] (each dose escalation from 1 μM to 500 mM) is “significant increase in total CAN1 DNA damage”. In data set [1] (non-transcribed strand of CAN1, p<0.005), the “lowest dose giving a significant increase in damage, NTS” value was 1 µM. The “lowest dose giving a significant increase in damage, TS” value in data set [1] (transcribed strand of CAN1, p<0.005) is 10 µM.

For the molecule `COS(C)(=O)=O` [MMS, methyl methanosulfonate], the “in vivo DNA damage induced by dose escalation or by increase in exposure time” value in data set [2] is reported as “increase in in vivo DNA damage”. In addition, in data set [1] (dose escalation (FIG. 5)), the “in vitro DNA damage induced by dose escalation” value is “increase in in vitro DNA damage”.

For `O=S([O-])O.[Na+]` [sodium bisulfite], in data set [3], the “DNA change induced in naked DNA” value was “deamination of unmethylated cytosines to uracil”.

B1: thymine glycol lesion: synthetic template oligonucleotide containing a single 5R,6S-dihydroxy-5,6-dihydrothymine (thymine glycol) (nucleic acid)
DNA: CCACTCACCGGCACATAACAGACTTGGCTGTCCCAGACTGCAGGAAGCCCAGGTGGAAGCCAT
modifications: thymine glycol lesion, further chemistry not given here
Regarding B1, the “lesion detected in primer extensions (sensitivity of PADDA)” value (shortened to “lesion detected in primer extensions”) in data set [4] worked out at 67%.

B2: 8-oxo-dA lesion: synthetic template oligonucleotide containing a single 7,8-dihydro-8-oxo-2′-deoxyadenosine (8-oxo-dA) (nucleic acid)
DNA: CCACTCTCCATGCACATAACAGACTTGGCTGTGCNCGGTGCTCAGGAAGCCCAGGTGGAAGCCAT
modifications: 8-oxo-dA lesion, chemistry not fully specified
For the molecule B2, in data set [4], the “lesion detected in primer extensions” value came to 100%, the “Stops with Misincorporation (SMs)” value came out at 10%, the Stops was determined as 90% and the “lesion acting as Vent exo− blocking lesion” value (“lesion acting” below) was 100%.

B3: Abasic sites: 64 base synthetic template oligonucleotide with a single abasic site (dSpacer tetrahydrofuran analog) (nucleic acid)
DNA: CCACTCTCCATGCACATAACAGACTTGGCTCACCTGCACTCAGGAAGCCCAGGTGGAAGCCAT
modifications: abasic tetrahydrofuran site, further chemistry not given here
For the molecule B3, in data set [4], the “lesion detected in primer extensions” value worked out at 100%, the “Lesion Bypass with Misincorporation (LBM)” value turned out to be 5%, the “Stops with Misincorporation (SMs)” value was found to be 50% and the Stops is 45%. For the same molecule, the “lesion acting” value in data set [4] turned out to be 95%.

B4: 8-OxoG lesion: synthetic template oligonucleotide containing a single 7,8-dihydro-8-oxo-2′-deoxyguanosine (8-oxo-dG) (nucleic acid)
DNA: CCACTCACCNTGCACATAACAGACTTGGCTGTCCCAGACTGCAGGAAGCCCAGGTGGAAGCCAT
modifications: 8-oxo-dG lesion, chemistry not fully specified
For the molecule B4, in data set [4], the “Bypass by Vent exo− without misincorporation” value is listed as 15%, the “lesion detected in primer extensions” value turned out to be 85%, the “Lesion Bypass with Misincorporation (LBM)” value amounted to 62% and the “Stops with Misincorporation (SMs)” value was found to be 15%. In data set [4], the Stops is recorded as 8% and the “lesion acting” value is on record as 23%.
